Test results reported in patent US20250297004A1, “NECTIN-4 BINDING AGENTS” (INNATE PHARMA, priority 2022, published 2025).
Substitutions are numbered along the chain they refer to.

How the values were obtained:
human Nectin-4 Mutant 1 = target: T1, human Nectin-4 Mutant 1 (human, UniProt Q96NY8 32-510); assay: binding to HEK293T cells expressing Nectin-4 mutant; '-' means association does not occur
T1 construct: Expressed on transfected HEK293T cells; also called S58P/G59D/Q61A/N106D/P107A
T1 chain: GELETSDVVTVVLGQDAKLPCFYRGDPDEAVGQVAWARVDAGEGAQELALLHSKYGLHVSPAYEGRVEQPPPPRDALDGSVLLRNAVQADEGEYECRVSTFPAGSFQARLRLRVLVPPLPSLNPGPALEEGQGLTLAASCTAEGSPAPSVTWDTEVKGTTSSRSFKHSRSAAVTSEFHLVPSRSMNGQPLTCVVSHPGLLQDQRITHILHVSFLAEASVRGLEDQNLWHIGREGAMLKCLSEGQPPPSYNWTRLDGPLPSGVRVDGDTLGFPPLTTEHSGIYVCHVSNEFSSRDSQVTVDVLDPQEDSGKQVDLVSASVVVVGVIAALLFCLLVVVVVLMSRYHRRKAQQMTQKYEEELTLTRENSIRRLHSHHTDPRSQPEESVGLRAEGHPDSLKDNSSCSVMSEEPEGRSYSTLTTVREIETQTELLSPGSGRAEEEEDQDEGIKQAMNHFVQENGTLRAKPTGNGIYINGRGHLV

[1] = target: T2, mouse Nectin-4 protein expressed on CHO cells (Mus musculus, UniProt Q8R007); assay: Species cross-reactivity by flow cytometry on CHO cell lines; assay type: binding
T2 construct: V5 (N); expressed in transfected cells; host or cells: CHO
T2 sequence (Q8R007 32-508): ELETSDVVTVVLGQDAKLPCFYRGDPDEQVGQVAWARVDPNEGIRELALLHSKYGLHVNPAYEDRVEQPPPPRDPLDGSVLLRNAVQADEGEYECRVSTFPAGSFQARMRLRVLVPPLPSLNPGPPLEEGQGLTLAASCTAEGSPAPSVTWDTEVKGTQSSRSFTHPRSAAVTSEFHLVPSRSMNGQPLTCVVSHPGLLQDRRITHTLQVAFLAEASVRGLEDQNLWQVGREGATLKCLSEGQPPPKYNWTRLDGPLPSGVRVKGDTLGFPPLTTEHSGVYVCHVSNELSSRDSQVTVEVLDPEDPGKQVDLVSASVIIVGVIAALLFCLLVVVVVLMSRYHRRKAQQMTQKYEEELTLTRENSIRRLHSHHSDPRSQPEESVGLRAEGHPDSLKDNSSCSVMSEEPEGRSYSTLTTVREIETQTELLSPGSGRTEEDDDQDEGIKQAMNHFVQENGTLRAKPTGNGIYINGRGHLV
Method: (§1) Anti-Nectin-4 antibodies were tested by flow cytometry for binding to different CHO cell lines made to express respectively the mouse, cynomolgus and rat Nectin-4 protein (including an N-terminal V5 tag not shown in the sequences below).
(§2) The mature amino acid sequence of the proteins expressed by the cells were as follows: […]

[2] = test system: cynomolgus Nectin-4 protein expressed on CHO cells; assay: as above; assay type: binding; settings: FIG. 6B
Method: as §1, §2

[3] = target: human Nectin-4 (protein used in the SPR affinity measurements) (human) (UniProt Q96NY8); assay: SPR
human Nectin-4 Mutant 7 = target: T3, human Nectin-4 Mutant 7 (human, UniProt Q96NY8 32-510); assay: binding to HEK293T cells expressing Nectin-4 mutant; '-' means association does not occur
T3 construct: Expressed on transfected HEK293T cells; also called S195A/K197T/S199A
T3 chain: T1 chain with P27S, D28G, A30Q, D75N, A76P, S164A, K166T, S168A

[4] = target: T4, human Nectin-4 Mutant 7bis (human, UniProt Q96NY8 32-510); assay: as above
T4 construct: Expressed on transfected HEK293T cells; also called A72P/G73N/K197T/S199A
T4 chain: T1 chain with P27S, D28G, A30Q, A41P, G42N, D75N, A76P, K166T, S168A

[5] = target: T5, mouse Nectin-4 protein expressed on CHO cells (mouse, UniProt Q8R007 32-508); assay: flow cytometry on CHO cells expressing mouse Nectin-4
T5 construct: also called Mouse Nectin-4-V5
T5 sequence: T2 sequence (Q8R007 32-508)

Sequence of cynomolgus Nectin-4 protein expressed on CHO cells (as listed by the source): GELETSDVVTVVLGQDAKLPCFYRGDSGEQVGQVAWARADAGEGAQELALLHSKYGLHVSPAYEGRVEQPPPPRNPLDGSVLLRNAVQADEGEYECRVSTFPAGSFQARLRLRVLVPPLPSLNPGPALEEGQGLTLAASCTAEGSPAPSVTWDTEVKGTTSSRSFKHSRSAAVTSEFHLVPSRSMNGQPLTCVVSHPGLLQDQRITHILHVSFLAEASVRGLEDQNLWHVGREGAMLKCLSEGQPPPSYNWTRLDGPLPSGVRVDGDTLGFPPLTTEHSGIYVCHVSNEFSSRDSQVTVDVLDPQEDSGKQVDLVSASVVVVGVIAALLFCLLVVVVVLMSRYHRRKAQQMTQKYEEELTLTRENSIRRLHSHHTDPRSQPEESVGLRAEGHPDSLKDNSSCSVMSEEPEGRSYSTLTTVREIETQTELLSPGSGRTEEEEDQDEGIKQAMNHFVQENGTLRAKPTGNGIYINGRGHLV

B1: N41 (antibody, V domains shown)
VH: QVQLKQSGPGLVQPSQSLSITCTVSGFSLTNYGVHWVRQSPGKGLEWLGVIWSGGSTDYNAAFISRLSISKDTSKSQVFFKMNSLQADDTAIYYCARELIHAMDNWGQGTSVTVSS
VL: DIQMTQSPASLSVSVGETVTITCRASENIYSNLAWYQQKQGNSPQLLVFAATNLADGVPSRFSGSGSGTQYSLKINSLQSEDFGTYYCQHFWGTPTFGGGTKLEIK
Q: Does B1 bind (human Nectin-4 Mutant 1)?
A: no binding

B2: 5E7 (antibody, V domains shown)
VH: QVQLQQPGAELVKPGASVKLSCKASGYIFTSYWMHWVKQRPGQGLEWIGEIDPSDSYTNYNQKFKGKATLTLDKSSSTTYMQLSSLTSEDSAVYYCVRGYGNYGDYWGQGTTLTVSSASTKGP
VL: DVVMTQAAFSNPVTLGTSASISCRSSKSLLHSNGITYLYWYLQKPGQSPQLLIYQMSNLASGVPDRFSSSGSGTDFTLRISRVEAEDVGVYYCAQNLELPWTFGGGTKLEIKRTVAAP
Q: For B2, which “binding to mouse Nectin 4 protein” value [1] is on record?
A: lack binding

Q: What about the “binding to cynomolgus Nectin 4 protein” value [2] of the same molecule?
A: bound

B3: chimeric parental 5E7 antibody (antibody, V domains shown)
VH: QVQLQQPGAELVKPGASVKLSCKASGYIFTSYWMHWVKQRPGQGLEWIGEIDPSDSYTNYNQKFKGKATLTLDKSSSTTYMQLSSLTSEDSAVYYCVRGYGNYGDYWGQGTTLTVSS
VL: DVVMTQAAFSNPVTLGTSASISCRSSKSLLHSNGITYLYWYLQKPGQSPQLLIYQMSNLASGVPDRFSSSGSGTDFTLRISRVEAEDVGVYYCAQNLELPWTFGGGTKLEIKR
notes: Chimeric antibody, murine variable domains with human constant regions; also called ch5E7; CHG1-M-1N4-5E7
Q: Which results are given for B3?
A: Kd [3]: 5.9 nM; koff [3]: 0.0027 s⁻¹; kon [3]: 480000 M⁻¹ s⁻¹; binding result (human Nectin-4 Mutant 7): no binding; binding result [4]: no binding; binding result [5]: no binding
